T1: nSR100 (Mus musculus, UniProt Q8BKA3)
T1 construct: host or cells: mouse N2A cells
T1 sequence (Q8BKA3 1-608): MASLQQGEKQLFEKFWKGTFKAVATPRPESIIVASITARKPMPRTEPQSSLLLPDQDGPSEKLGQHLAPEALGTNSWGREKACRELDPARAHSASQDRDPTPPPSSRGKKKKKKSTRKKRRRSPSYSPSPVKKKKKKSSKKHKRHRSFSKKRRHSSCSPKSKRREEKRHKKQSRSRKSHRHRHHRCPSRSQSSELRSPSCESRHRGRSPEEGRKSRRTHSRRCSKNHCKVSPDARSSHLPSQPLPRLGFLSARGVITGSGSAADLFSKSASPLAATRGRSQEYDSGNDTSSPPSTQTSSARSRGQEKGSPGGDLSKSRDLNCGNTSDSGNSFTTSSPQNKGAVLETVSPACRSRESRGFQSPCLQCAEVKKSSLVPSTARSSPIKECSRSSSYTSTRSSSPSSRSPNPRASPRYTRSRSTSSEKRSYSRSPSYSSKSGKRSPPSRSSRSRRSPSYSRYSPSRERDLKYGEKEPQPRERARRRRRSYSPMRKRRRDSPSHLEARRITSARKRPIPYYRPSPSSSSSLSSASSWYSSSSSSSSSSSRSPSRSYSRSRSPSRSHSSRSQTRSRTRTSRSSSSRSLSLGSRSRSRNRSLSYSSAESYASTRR


Molecular target: T1, nSR100
Assay: AP-MS nSR100 interaction partners from mouse N2A cells (Table 5)
Type: binding
Details: for AvgP (average of the SAINT scores) / MaxP (maximal SAINT score): bait Srrm4; for FoldChange between the prey Avg spectra of the bait and control purifications: bait Srrm4, 0.1 added to prevent division by 0; for AvgSpec (average number of spectra per replicate): bait Srrm4, 2 replicates; for Spectra (number of spectra for the prey in the purification of the bait): AP-MS; for SpecSum: bait Srrm4, sum of spectra over 2 replicates
[1] = bait Srrm4, biological replicate 1 (first number of the cell)
[2] = bait Srrm4, biological replicate 2 (second number of the cell)

Text: By applying affinity purification coupled to mass-spectrometry (AP-MS), several interaction nSR100 partner proteins were detected that provide insight into mechanisms of post-translational regulation of nSR100 levels.

Row | AvgP (average of the SAINT scores) | MaxP (maximal SAINT score) | FoldChange between the prey Avg spectra of the bait and control purifications | AvgSpec (average number of spectra per replicate) | Spectra (number of spectra for the prey in the purification of the bait) [1] | Spectra (number of spectra for the prey in the purification of the bait) [2] | SpecSum | Molecule
1 | 1 | 1 | 180 | 18 | 16 | 20 | 36 | Rbm25 (protein, UniProt B2RY56 1-838, looked up) RNA-binding protein 25: MSFPPHLNRPPMGIPALPPGIPPPQFPGFPPPVPPGTPMIPVPMSIMAPAPTVLVPTVSMVGKHLGARKDHPGLKLKENDENCGPTTTVFVGNISEKASDMLIRQLLAKCGLVLSWKRVQGASGKLQAFGFCEYKEPESTLRALRLLHDLQIGEKKLLVKVDAKTKAQLDEWKAKKKANGNARPETVTNDDEEALDEETKRRDQMIKGAIEVLIREYSSELNAPSQESDSHPRKKKKEKKEDIFRRFPVAPLIPYPLITKEDINAIEMEEDKRDLISREISKFRDTHKKLEEEKGKKEKERQEIEKERRERERERERERERREREREREREREREKEKERERERERDRDRDRTKERDRDRERDRDRDRERSSDRNKDRSRSREKSRDREREREREREREREREREREREREREREREREREKDKKRDREEDEEDAYERRKLERKLREKEAAYQERLKNWEIRERKKTREYEKEAEREEERRREMAKEAKRLKEFLEDYDDDRDDPKYYRGSALQKRLRDREKEMEADERDRKREKEELEEIRQRLLAEGHPDPDAELQRMEQEAERRRQPQIKQEPESEEEEEEKQEKEEKREEPVEEEEEPEQKPCLKPTLRPISSAPSVSSASGNATPNTPGDESPCGIIIPHENSPDQQQPEEHRPKIGLSLKLGASNSPGQPNSVKRKKLPVDSVFNKFEDEDSDDVPRKRKLVPLDYGEDDKNATKGTVNTEEKRKHIKSLIEKIPTAKPELFAYPLDWSIVDSILMERRIRPWINKKIIEYIGEEEATLVDFVCSKVMAHSSPQSILDDVAMVLDEEAEVFIVKMWRLLIYETEAKKIGLVK
2 | 1 | 1 | 35 | 3.5 | 3 | 4 | 7 | Rad23b (protein, UniProt P54728 1-416, looked up) UV excision repair protein …: MQVTLKTLQQQTFKIDIDPEETVKALKEKIESEKGKDAFPVAGQKLIYAGKILSDDTALKEYKIDEKNFVVVMVTKPKAVTTAVPATTQPSSTPSPTAVSSSPAVAAAQAPAPTPALPPTSTPASTAPASTTASSEPAPAGATQPEKPAEKPAQTPVLTSPAPADSTPGDSSRSNLFEDATSALVTGQSYENMVTEIMSMGYEREQVIAALRASFNNPDRAVEYLLMGIPGDRESQAVVDPPPQAVSTGTPQSPAVAAAAATTTATTTTTSGGHPLEFLRNQPQFQQMRQIIQQNPSLLPALLQQIGRENPQLLQQISQHQEHFIQMLNEPVQEAGSQGGGGGGGGGGGGGGGGGIAEAGSGHMNYIQVTPQEKEAIERLKALGFPEGLVIQAYFACEKNENLAANFLLQQNFDED
3 | 1 | 1 | 11.92 | 71.5 | 70 | 73 | 143 | Sf1 (protein, UniProt Q64213 2-653, looked up) Splicing factor 1: ATGANATPLDFPSKKRKRSRWNQDTMEQKTVIPGMPTVIPPGLTREQERAYIVQLQIEDLTRKLRTGDLGIPPNPEDRSPSPEPIYNSEGKRLNTREFRTRKKLEEERHTLITEMVALNPDFKPPADYKPPATRVSDKVMIPQDEYPEINFVGLLIGPRGNTLKNIEKECNAKIMIRGKGSVKEGKVGRKDGQMLPGEDEPLHALVTANTMENVKKAVEQIRNILKQGIETPEDQNDLRKMQLRELARLNGTLREDDNRILRPWQSSETRSITNTTVCTKCGGAGHIASDCKFQRPGDPQSAQDKARMDKEYLSLMAELGEAPVPASVGSTSGPATTPLASAPRPAAPASNPPPPSLMSTTQSRPPWMNSGPSENRPYHGMHGGGPGGPGGGPHSFPHPLPSLTGGHGGHPMQHNPNGPPPPWMQPPPPPMNQGPHPPGHHGPPPMDQYLGSTPVGSGVYRLHQGKGMMPPPPMGMMPPPPPPPSGQPPPPPSGPLPPWQQQQQQPPPPPPPSSSMASSTPLPWQQNTTTTTTSAGTGSIPPWQQQQAAAAASPGTPQMQGNPTMVPLPPGVQPPLPPGAPPPPPCSIECLLCLLSSPNSLCLSPNRAARIPPRGSDGPSHESEDFPRPLVTLPGRQPQQRPWWTGWFGKAA
4 | 1 | 1 | 8.33 | 25 | 20 | 30 | 50 | Sf3a1 (protein, UniProt Q8K4Z5 1-791, looked up) Splicing factor 3A subunit 1: MQAGPVQAVPPPPPVATESKQPIEEEASSKEDPTPSKPVVGIIYPPPEVRNIVDKTASFVARNGPEFEARIRQNEINNPKFNFLNPNDPYHAYYRHKVSEFKEGKAQEPSAAIPKVMQQQQQATQQQLPQKVQAQVIQETIVPKEPPPEFEFIADPPSISAFDLDVVKLTAQFVARNGRQFLTQLMQKEQRNYQFDFLRPQHSLFNYFTKLVEQYTKILIPPKGLFSKLKKEAENPREVLDQVCYRVEWAKFQERERKKEEEEKEKERVAYAQIDWHDFVVVETVDFQPNEQGNFPPPTTPEELGARILIQERYEKFGESEEVEMEVESDEEDQEKAEETPSQLDQDTQVQDMDEGSDDEEEGQKVPPPPETPMPPPLPPTPDQVIVRKDYDPKASKPLPPAPAPDEYLVSPITGEKIPASKMQEHMRIGLLDPRWLEQRDRSIREKQSDDEVYAPGLDIESSLKQLAERRTDIFGVEETAIGKKIGEEEIQKPEEKVTWDGHSGSMARTQQAAQANITLQEQIEAIHKAKGLVPEDDTKEKIGPSKPNEIPQQPPPPSSATNIPSSAPPITSVPRPPAMPPPVRTTVVSAVPVMPRPPMASVVRLPPGSVIAPMPPIIHAPRINVVPMPPAAPPIMAPRPPPMIVPTAFVPAPPVAPVPAPAPMPPVHPPPPMEDEPPSKKLKTEDSLMPEEEFLRRNKGPVSIKVQVPNMQDKTEWKLNGQGLVFTLPLTDQVSVIKVKIHEATGMPAGKQKLQYEGIFIKDSNSLAYYNMASGAVIHLALKERGGRKK

— patent US10772928B2, “Modulation and detection of a neuronal alternative splicing regulatory network for treatment and diagnosis of neurological disorders” (The Governing Council of the University of Toronto, priority 2014, dated 2020)
